Results as given in paper PMC4552016, “The Rsb Phosphoregulatory Network Controls Availability of the Primary Sigma Factor in Chlamydia trachomatis and Influences the Kinetics of Growth and Development” (PLoS Pathogens, 2015).

T1: σ^66, recombinant purified, amine-coupled SPR ligand (Chlamydia trachomatis, UniProt P18333 1-571)
T1 construct: Sigma66 (RpoD) of Chlamydia trachomatis, cloned from serovar D/UW/CX genomic DNA; may be the same construct as m12 (GST-σ66); also called Sigma66; RpoD; source: PC2 E. coli, pGEX-derived vector, purified
T1 sequence (looked up): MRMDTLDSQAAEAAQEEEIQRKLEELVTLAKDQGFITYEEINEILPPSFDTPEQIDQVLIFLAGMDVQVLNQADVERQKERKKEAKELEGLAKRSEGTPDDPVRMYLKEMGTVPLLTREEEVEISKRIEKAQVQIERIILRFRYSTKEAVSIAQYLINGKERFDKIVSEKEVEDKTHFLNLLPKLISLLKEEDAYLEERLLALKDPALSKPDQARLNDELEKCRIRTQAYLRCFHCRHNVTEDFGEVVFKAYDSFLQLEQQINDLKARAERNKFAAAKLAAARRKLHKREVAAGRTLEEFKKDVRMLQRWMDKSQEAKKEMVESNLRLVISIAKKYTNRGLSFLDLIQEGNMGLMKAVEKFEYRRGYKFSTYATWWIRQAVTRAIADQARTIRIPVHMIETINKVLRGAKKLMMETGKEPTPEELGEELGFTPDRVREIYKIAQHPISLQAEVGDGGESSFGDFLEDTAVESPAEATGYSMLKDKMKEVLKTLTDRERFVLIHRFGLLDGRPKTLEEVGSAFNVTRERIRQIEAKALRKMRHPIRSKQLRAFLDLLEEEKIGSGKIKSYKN

B1: RsbWCt, recombinant purified (SPR analyte) (natural protein, Chlamydia trachomatis, UniProt O84553 1-146, looked up)
chain: MTFSEGEQVFPATLQDLYPMLDFVKRAGVHCNCTQKKLSKLELACEELLLNIITHAYKGLPSTGWIRILCTETPDALLVRITDHGPAFNPITASPDIMRLDLPIEQRRIGGLGIFLAKYSVDVFDYERVNDTNVVTLTLYTKPHNS
notes: RsbW of Chlamydia trachomatis, cloned from serovar D/UW/CX genomic DNA; also called CT549; source: PC2 E. coli, pGEX-derived vector, purified
B2: RsbV1 S56A (natural protein)
chain: MSNFQKEEQGQTGILHLQGKLDGVSSPAVQESISESLSNGMKNIILDCGDLDYISAAGIRVLLQSYHQVGKNAGKIALTSVSKTVEQTLYVTGFLSYFKVFDSVNEALQALAKENS
notes: RsbV1 of Chlamydia trachomatis (serovar D/UW/CX) with the phospho-accepting serine 56 changed to alanine; also called alanine derivative of RsbV1; source: PC2 E. coli, pGEX-derived vector (site directed mutagenesis), purified
B3: RsbV2 S55A (natural protein)
chain: MEWIAREYKNIFIVSLKGDMDAVTVPALEEFLTKSIAKGRVNVLLNMEKVFYMSAAGLRTLLSLAKLTQNHNGKLCICCLRDEVADIIRIAGLDKVITIRKAEQESFSDF
notes: RsbV2 of Chlamydia trachomatis (serovar D/UW/CX) with the phospho-accepting serine 55 changed to alanine; also called alanine derivative of RsbV2; source: PC2 E. coli, pGEX-derived vector (site directed mutagenesis), purified

What was measured:
[1] = molecular target: T1, σ^66, recombinant purified, …; experiment: SPR; Biacore 3000, CM5 chip; σ66, σ28 and σ54 amine-coupled to consecutive flow cells, RsbWCt analyte at various concentrations; reference flow cell with immobilized GST; Req as percent of theoretical Rmax; 10mM HEPES, 150mM NaCl, 1mM MgCl2, 30°C; settings: both partners purified
[2] = molecular target: B1; experiment: SPR; RsbV1, RsbV2 or their S-to-A / S-to-D derivatives immobilized on CM5 chip, RsbWCt analyte (2500nM for the wild-type ligands) with ATP, first and repeated injections; empty reference flow cell; 10mM HEPES, 150mM NaCl, 1mM MgCl2, 30°C; settings: both partners purified

B1
binding result [1]: binds

B2
binding result [2]: binds

B3
binding result [2]: binds
